Patent US20030220239A1 (published 2003)
One block for each binder: values may come before it.

Assays:
[1] = target: HLA-A2.1 (HLA-A*0201) on T2 cells (human); assay: T2 cell HLA-A2.1 stabilisation, flow cytometry
Procedure: Peptide was mixed with the cells by repipeting before distributing to the plate (alternatively peptide can be added to individual wells), and the plate was rocked gently for 2 minutes. Incubation was in a 5% CO₂ incubator at 37° C. The next day the unbound peptide was removed by washing twice with serum free RPMI medium and a saturating amount of anti-class I HLA monoclonal antibody, fluorescein isothiocyanate (FITC)-conjugated anti-HLA A2, A28 (One Lambda, Canoga Park, Calif.) was added. After incubation for 30 minutes at 4° C., cells were washed 3 times with PBS supplemented with 0.5% BSA, 0.05% (w/v) sodium azide, pH 7.4-7.6 (staining buffer). (Alternatively W6/32 (Sigma) can be used as the anti-class I HLA monoclonal antibody the cells washed with staining buffer and then incubated with fluorescein isothiocyanate (FITC)-conjugated goat F(ab′) antimouse-IgG (Sigma) for 30 min at 4° C. and washed 3 times as before.) The cells were resuspended in 0.5 ml staining buffer. […] If flow cytometry is not to be performed immediately the cells can be fixed by adding a quarter volume of 2% paraformaldehyde and storing in the dark at 4° C.

[2] = target: HLA-A2.1 (HLA-A*0201) on T2 cells (human); assay: T2 cell HLA-A2 stabilisation, flow cytometry
[3] = target: HLA-A2.1 (HLA-A*0201) on T2 cells (human); assay: T2 cell HLA-A*0201 stabilisation, flow cytometry

B1: SSX-2 41-49, KASEKIFYV (peptide)
peptide: KASEKIFYV
binding result [1]: binds

B2: tyrosinase208-216, LPWHRLFLL (peptide)
peptide: LPWHRLFLL
notes: also called Tyr 208-216
binding result [2]: binds

The next lines start with the values.

binding result [2]: binds
B3: tyrosinase207-215, FLPWHRLFL (peptide)
peptide: FLPWHRLFL
notes: also called Tyr 207-215

binding result [3]: binds
B4: PSMA663-671 (SEQ ID NO. 66) (peptide)
peptide: MMNDQLMFL
